According to US20090130105A1 (Biogen, published 2009):

Assays:
Experiment in all cases: SPR, Fab over captured mutant
[1] = target: T1, hIGF-1R-Fc mutant SD104 (H464A) (human, UniProt P08069 31-933)
T1 construct: not shown: human IgG1 Fc, C-terminal tag
Description: (§1) Surface plasmon resonance (SPR) experiments were performed on a Biacore 3000 instrument set to 25° C. […] The antibody sensorchip surfaces were prepared by injecting each antibody (diluted 100 μg/mL in 10 mM Acetate, pH 4.0) over EDC/NHS-activated sensorchip surfaces according to the standard protocol of the manufacturer. […] Both hIGF-1R-Fc and mIGF-1R-Fc proteins oligomerize due to the incorporation of two separate homodimeric regions (IGF-1R and IgG1-Fc). […] After, completion of the receptor-Fc loading step, flow rates were elevated to 5 μl/min. […] Dissociation was measured for 7 minutes after the antibody injections were complete. Finally, the flow rate was elevated to 30 μL/min and the chip surfaces were regenerated by 2×10 μL injections of 0.1 M glycine, pH 2.

[2] = target: T2, hIGF-1R-Fc mutant SD015 (H464E) (human, UniProt P08069 31-933)
T2 construct: not shown: human IgG1 Fc, C-terminal tag
T2 sequence (P08069 31-933 H494E): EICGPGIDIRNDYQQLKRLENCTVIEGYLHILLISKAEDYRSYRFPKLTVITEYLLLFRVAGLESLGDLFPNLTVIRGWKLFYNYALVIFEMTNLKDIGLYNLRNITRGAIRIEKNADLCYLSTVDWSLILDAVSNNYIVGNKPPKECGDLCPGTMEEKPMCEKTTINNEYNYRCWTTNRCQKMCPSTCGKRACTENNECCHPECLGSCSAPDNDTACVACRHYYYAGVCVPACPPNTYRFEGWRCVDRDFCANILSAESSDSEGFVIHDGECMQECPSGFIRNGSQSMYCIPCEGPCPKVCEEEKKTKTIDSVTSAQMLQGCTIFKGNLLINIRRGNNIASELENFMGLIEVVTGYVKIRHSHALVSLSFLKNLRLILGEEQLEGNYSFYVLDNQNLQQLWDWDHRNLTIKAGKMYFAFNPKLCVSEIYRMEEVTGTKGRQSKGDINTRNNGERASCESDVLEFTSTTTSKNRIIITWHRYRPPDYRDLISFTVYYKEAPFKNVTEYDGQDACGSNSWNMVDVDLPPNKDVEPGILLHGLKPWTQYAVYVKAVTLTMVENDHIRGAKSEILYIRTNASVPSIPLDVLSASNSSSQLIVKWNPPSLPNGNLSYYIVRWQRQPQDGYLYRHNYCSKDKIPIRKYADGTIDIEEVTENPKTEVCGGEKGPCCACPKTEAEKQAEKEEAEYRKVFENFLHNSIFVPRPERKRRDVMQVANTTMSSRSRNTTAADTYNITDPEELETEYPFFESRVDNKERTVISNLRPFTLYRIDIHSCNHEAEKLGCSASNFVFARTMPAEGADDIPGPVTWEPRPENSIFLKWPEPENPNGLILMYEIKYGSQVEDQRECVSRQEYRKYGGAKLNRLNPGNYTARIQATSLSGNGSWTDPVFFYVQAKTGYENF
Description: as §1

[3] = target: T3, hIGF-1R-Fc mutant SD103 (D461A, V462T) (human, UniProt P08069 31-933)
T3 construct: not shown: human IgG1 Fc, C-terminal tag
T3 sequence (P08069 31-933 D491A/V492T): as the sequence (P08069 31-933 H494E) above, with D461A, V462T, E464H counted along it
Description: as §1

[4] = target: T4, hIGF-1R-Fc mutant SD110 (E533H) (human, UniProt P08069 31-933)
T4 construct: not shown: human IgG1 Fc, C-terminal tag
T4 sequence (P08069 31-933 E563H): as the sequence (P08069 31-933 H494E) above, with E464H, E533H counted along it
Description: as §1

[5] = target: T5, hIGF-1R-Fc mutant SD113 (E570A, I571T) (human, UniProt P08069 31-933)
T5 construct: not shown: human IgG1 Fc, C-terminal tag
T5 sequence (P08069 31-933 E600A/I601T): as the sequence (P08069 31-933 H494E) above, with E464H, E570A, I571T counted along it
Description: as §1

[6] = target: T6, hIGF-1R-Fc mutant SD108 (H480E) (human, UniProt P08069 31-933)
T6 construct: not shown: human IgG1 Fc, C-terminal tag
T6 sequence (P08069 31-933 H510E): as the sequence (P08069 31-933 H494E) above, with E464H, H480E counted along it
Description: as §1

[7] = target: T7, hIGF-1R-Fc mutant SD102 (E459A, S460A) (human, UniProt P08069 31-933)
T7 construct: not shown: human IgG1 Fc, C-terminal tag
T7 sequence (P08069 31-933 E489A/S490A): as the sequence (P08069 31-933 H494E) above, with E459A, S460A, E464H counted along it
Description: as §1

[8] = target: T8, hIGF-1R-Fc mutant SD109 (Y482A, R483W) (human, UniProt P08069 31-933)
T8 construct: not shown: human IgG1 Fc, C-terminal tag
T8 sequence (P08069 31-933 Y512A/R513W): as the sequence (P08069 31-933 H494E) above, with E464H, Y482A, R483W counted along it
Description: as §1

Measured: binding result

T1 sequence (P08069 31-933 H494A): as the sequence (P08069 31-933 H494E) above, with E464A counted along it

B1: M14-C03 Fab (Fab, V domains shown)
VH: EVQLLESGGGLVQPGGSLRLSCAASGFTFSKYMMSWVRQAPGKGLEWVSYISPSGGLTWYADSVKGRFTISRDNSKNTLYLQMNSLRAEDTAVYYCARDGARGYGMDVWGQGTTVTVSS
VL: DIQMTQSPATLSLSPGERATLSCRASQSVSSYLAWYQQKPGQAPRLLIYDASNRATGIPARFSGSGSGTDFTLTISSLEPEDFAVYYCQQRSNWPPEVTFGPGTKVDIK
notes: Enzymatically derived Fab
no binding (tested: up to 30 nM Fab): all assays above
